Reference: patent US20140087995A1 (published 2014)
Numbered stars: 1 amine (or outer) side, 2 acyl side, 3 side chain; on linkers, the order of the positions; unused ones are H or OH. Bridge positions count the residues as written; N and C are the ends. Side chains are listed from the residue outwards. Ends that are not written are not given here. * marks the point of attachment. C20 diacid = O=C(O)CCCCCCCCCCCCCCCCCCC(=O)*; C18 diacid = O=C(O)CCCCCCCCCCCCCCCCC(=O)*; C16 diacid = O=C(O)CCCCCCCCCCCCCCC(=O)*; γGlu = O=C(O)[C@H](CCC(=O)[*:2])N[*:1]; C14 diacid = O=C(O)CCCCCCCCCCCCC(=O)*; AEEA = NCCOCCOCC(=O)O

T1: human calcitonin receptor (human, UniProt P30988 25-474)
T1 sequence (looked up): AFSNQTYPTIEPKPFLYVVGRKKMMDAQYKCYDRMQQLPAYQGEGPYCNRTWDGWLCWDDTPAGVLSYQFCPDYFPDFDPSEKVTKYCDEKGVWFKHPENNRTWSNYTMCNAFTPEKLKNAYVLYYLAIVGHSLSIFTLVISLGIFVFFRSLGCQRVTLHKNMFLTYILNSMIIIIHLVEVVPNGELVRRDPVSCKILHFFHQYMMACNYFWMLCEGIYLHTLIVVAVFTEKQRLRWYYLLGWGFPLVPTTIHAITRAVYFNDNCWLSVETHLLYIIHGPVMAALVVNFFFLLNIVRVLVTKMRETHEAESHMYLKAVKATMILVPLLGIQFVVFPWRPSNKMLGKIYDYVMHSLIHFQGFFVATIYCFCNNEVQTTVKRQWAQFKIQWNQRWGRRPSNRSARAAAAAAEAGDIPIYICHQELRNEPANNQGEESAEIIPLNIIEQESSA


molecular target: T1, human calcitonin receptor; experiment: cell-based or functional assay

Row | Ratio hCT/hAmylin funct. | Binder
1 | 29.3 | K([γGlu-γGlu-C20 diacid])CNTATCATQRLAEFLRHSSPNFGAIPSSTNVGPRTY-NH2 (disulfide 2-7 (inferred), also called compound 110)
2 | 28 | K([γGlu-γGlu-C20 diacid])CNTATCATQRLAHFLRHSSPNFGAIPSSTNVGSNTY-NH2 (disulfide 2-7 (inferred), also called compound 92)
3 | 17 | K([γGlu-C20 diacid])CNTATCATQRLAEFLRHSSPNFGAIPSSTNVGPRTY-NH2 (disulfide 2-7 (inferred))
4 | 17.3 | K([γGlu-γGlu-C20 diacid])CNTATCATQRLAEFLRHSSNNPGAILSSTNVGPETY-NH2 (disulfide 2-7 (inferred))

Further lines, the binder ahead of its results:

Row | Binder | Ratio hCT/hAmylin funct.
5 | K([γGlu-C16 diacid])CNTATCATQRLANFLRHSSPNFGAIPSSTNVGHNTY-NH2 (disulfide 2-7 (inferred)) [N^ε1-[(4S)-4-carboxy-4-(15-carboxypentadecanoylamino)butanoyl]-[Arg17,Pro21,Pro27,His34]-h-amylin] | 65.1
6 | K([γGlu-C20 diacid])CNTATCATQRLADFLRHSSPNFGAIPSSTNVGPRTY-NH2 (disulfide 2-7 (inferred)) | 24.9
7 | K([γGlu-C14 diacid])CNTATCATQRLANFLRHSSPNFGAIPSSTNVGHNTY-NH2 (disulfide 2-7 (inferred)) [N^ε1-[(4S)-4-carboxy-4-(13-carboxytridecanoylamino)butanoyl]-[Arg17,Pro21,Pro27,His34]-h-amylin] | 38.8
8 | K([AEEA-AEEA-γGlu-C20 diacid])CNTATCATQRLANFLRHSSPNFGAIPSSTNVGRNTY-NH2 (disulfide 2-7 (inferred), also called compound 95) | 33
9 | K([γGlu-C18 diacid])CNTATCATQRLANFLRHSSPNFGAIPSSTNVGHNTY-NH2 (disulfide 2-7 (inferred)) [N^ε1-[(4S)-4-carboxy-4-(17-carboxyheptadecanoylamino)butanoyl]-[Arg17,Pro21,Pro27,His34]-h-amylin] | 60.9
10 | K([AEEA-C20 diacid])CNTATCATQRLANFLRHSSPNFGAIPSSTNVGHNTY-NH2 (disulfide 2-7 (inferred), also called compound 91) [N^ε1-[2-[2-[2-(19-carboxynonadecanoylamino)ethoxy]ethoxy]acetyl]-[Arg17,Pro21,Pro27,His34]-h-amylin] | 36.9
